How the values were obtained:
[1] = target: heterologous T/F Env C.1086 (HIV-1 subtype C, isolate 1086 (T/F), UniProt C6G099, strain); assay: ELISA
[2] = target: CH505 transmitted/founder (T/F) Env gp140 (HIV-1 subtype C, CH505 (703010505) …, strain); assay: SPR

Binder | binding result [1] | binding result [2]
CH103 unmutated common ancestor (UCA) mAb (antibody, V domains shown) VH: QVQLQESGPGLVKPSETLSLTCTVSGGSISSYYWSWIRQPPGKGLEWIGYIYYSGSTNYNPSLKSRVTISVDTSKNQFSLKLSSVTAADTAVYYCASLPRGQLVNAYFDYWGQGTLVTVSS VL: not shown | no binding | 
inferred intermediate antibody I1 (antibody, V domains shown) V domain 1: QVQLQESGPGVVKSSETLSLTCTVSGGSMGGTYWSWLRLSPGKGLEWIGYIFHTGHTNYSPSLKGRVSISVDTSEDQFSLRLRSVTAADTAVYFCASLPRGQLVNAYFRNWGRGTLVSVTA V domain 2: SYELTQPPSVSVSPGQTATITCSGDKVASKNVCWYQVKPGQSPEVVMYENYKRPSGIPDRFSGSKSGSTATLTIRGTQATDEADYYCQVWDSFSTFVFGSGTQVTV |  | binds
CH104 (full-length IgG1 recombinant mAb) (antibody, V domains shown) V domain 1: QVQLQESGPGVVKSSETLSLTCTVSGGSMGGTYWSWLRLSPGKGLEWIGYIFHTGHTNYNPSLEGRVSISVDTSEDQFSLRLRSVTAADTAVYFCASLPRGQLVNAYFRNWGRGTLVSVTA V domain 2: SYELTQPPSVSVSPGQTATITCSGDKVASKNVCWYQVKPGQSPEVVMYENYKRASGIPDRFSGSKSGSTATLTIRGTQATDEADYYCQVWDSFSTFVFGSGTQVTV |  | binds
CH103 (full-length IgG1 recombinant mAb) (antibody, V domains shown) V domain 1: QVQLQESGPGVVKSSETLSLTCTVSGGSMGGTYWSWLRLSPGKGLEWIGYIFHTGETNYSPSLKGRVSISVDTSEDQFSLRLRSVTAADTAVYFCASLPRGQLVNAYFRNWGRGSLVSVTA V domain 2: SYELTQPPSVSVSPGQTATITCSGASTNVCWYQVKPGQSPEVVIFENYKRPSGIPDRFSGSKSGSTATLTIRGTQAIDEADYYCQVWDSFSTFVFGSGTQVTV |  | binds
